Consider 20 molecules from patent US20110118131A1 (published 2011).

This experiment addresses T1, Ep-CAM (UniProt P16422 24-265, limits assumed).
T1 construct: Immobilised on the Biacore chip; construct not described
T1 sequence (looked up): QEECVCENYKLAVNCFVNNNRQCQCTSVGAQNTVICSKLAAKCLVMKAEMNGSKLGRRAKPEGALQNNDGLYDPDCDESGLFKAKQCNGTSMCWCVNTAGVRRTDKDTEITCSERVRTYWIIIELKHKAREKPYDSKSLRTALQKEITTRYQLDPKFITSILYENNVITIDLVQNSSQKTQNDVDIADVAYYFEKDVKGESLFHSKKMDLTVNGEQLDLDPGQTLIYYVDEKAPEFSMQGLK
Description: Biacore, Fab periplasmic extract. A general note: In SPR one partner is held on a chip, and binding of the other changes the refractive index at the surface.

B1: ING-1 Fab, light chain L29P (Fab, V domains shown)
VH: QIQLVQSGPELKKPGETVKISCKASGYTFTKYGMNWVKQAPGKGLKWMGWINTYTEEPTYGDDFKGRFAFSLETSASTANLQINNLKSEDTATYFCARFGSAVDYWGQGTSVTVSS
VL: DIVMTQAAFSNPVTLGTSGSISCRSSKSPLHSNGITYLYWYLQKPGQSPQLLIYQMSNLASGVPDRFSSSGSGTDFTLRISRVEAEDVGVYYCAQNLELPRTFGGGTKLEMKR
notes: Fab in periplasmic extract
Turning to B1, the binding result was “no binding”.

B2: ING-1 Fab, light chain P100T (Fab, V domains shown)
VH: QIQLVQSGPELKKPGETVKISCKASGYTFTKYGMNWVKQAPGKGLKWMGWINTYTEEPTYGDDFKGRFAFSLETSASTANLQINNLKSEDTATYFCARFGSAVDYWGQGTSVTVSS
VL: DIVMTQAAFSNPVTLGTSGSISCRSSKSLLHSNGITYLYWYLQKPGQSPQLLIYQMSNLASGVPDRFSSSGSGTDFTLRISRVEAEDVGVYYCAQNLELTRTFGGGTKLEMKR
notes: Fab in periplasmic extract
In the case of B2, the “fold difference in affinity vs original ING-1” value (from here on “fold difference in affinity”) was 0.08 fold.

B3: ING-1 Fab, light chain P100A (Fab, V domains shown)
VH: QIQLVQSGPELKKPGETVKISCKASGYTFTKYGMNWVKQAPGKGLKWMGWINTYTEEPTYGDDFKGRFAFSLETSASTANLQINNLKSEDTATYFCARFGSAVDYWGQGTSVTVSS
VL: DIVMTQAAFSNPVTLGTSGSISCRSSKSLLHSNGITYLYWYLQKPGQSPQLLIYQMSNLASGVPDRFSSSGSGTDFTLRISRVEAEDVGVYYCAQNLELARTFGGGTKLEMKR
notes: Fab in periplasmic extract
Regarding B3, the “fold difference in affinity” value was 0.05 fold.

B4: ING-1 Fab, light chain M56G (Fab, V domains shown)
VH: QIQLVQSGPELKKPGETVKISCKASGYTFTKYGMNWVKQAPGKGLKWMGWINTYTEEPTYGDDFKGRFAFSLETSASTANLQINNLKSEDTATYFCARFGSAVDYWGQGTSVTVSS
VL: DIVMTQAAFSNPVTLGTSGSISCRSSKSLLHSNGITYLYWYLQKPGQSPQLLIYQGSNLASGVPDRFSSSGSGTDFTLRISRVEAEDVGVYYCAQNLELPRTFGGGTKLEMKR
notes: Fab in periplasmic extract
Take B4: the “fold difference in affinity” value worked out at 0.8 fold.

B5: ING-1 Fab, light chain R101T (Fab, V domains shown)
VH: QIQLVQSGPELKKPGETVKISCKASGYTFTKYGMNWVKQAPGKGLKWMGWINTYTEEPTYGDDFKGRFAFSLETSASTANLQINNLKSEDTATYFCARFGSAVDYWGQGTSVTVSS
VL: DIVMTQAAFSNPVTLGTSGSISCRSSKSLLHSNGITYLYWYLQKPGQSPQLLIYQMSNLASGVPDRFSSSGSGTDFTLRISRVEAEDVGVYYCAQNLELPTTFGGGTKLEMKR
notes: Fab in periplasmic extract
For B5, the binding result is reported as “no binding”.

B6: ING-1 Fab, light chain M56V (Fab, V domains shown)
VH: QIQLVQSGPELKKPGETVKISCKASGYTFTKYGMNWVKQAPGKGLKWMGWINTYTEEPTYGDDFKGRFAFSLETSASTANLQINNLKSEDTATYFCARFGSAVDYWGQGTSVTVSS
VL: DIVMTQAAFSNPVTLGTSGSISCRSSKSLLHSNGITYLYWYLQKPGQSPQLLIYQVSNLASGVPDRFSSSGSGTDFTLRISRVEAEDVGVYYCAQNLELPRTFGGGTKLEMKR
notes: Fab in periplasmic extract
In the case of B6, the binding result is reported as “no binding”.

B7: ING-1 Fab, light chain R101G (Fab, V domains shown)
VH: QIQLVQSGPELKKPGETVKISCKASGYTFTKYGMNWVKQAPGKGLKWMGWINTYTEEPTYGDDFKGRFAFSLETSASTANLQINNLKSEDTATYFCARFGSAVDYWGQGTSVTVSS
VL: DIVMTQAAFSNPVTLGTSGSISCRSSKSLLHSNGITYLYWYLQKPGQSPQLLIYQMSNLASGVPDRFSSSGSGTDFTLRISRVEAEDVGVYYCAQNLELPGTFGGGTKLEMKR
notes: Fab in periplasmic extract
For B7, the binding result is reported as “no binding”.

B8: ING-1 Fab, light chain N33V (Fab, V domains shown)
VH: QIQLVQSGPELKKPGETVKISCKASGYTFTKYGMNWVKQAPGKGLKWMGWINTYTEEPTYGDDFKGRFAFSLETSASTANLQINNLKSEDTATYFCARFGSAVDYWGQGTSVTVSS
VL: DIVMTQAAFSNPVTLGTSGSISCRSSKSLLHSVGITYLYWYLQKPGQSPQLLIYQMSNLASGVPDRFSSSGSGTDFTLRISRVEAEDVGVYYCAQNLELPRTFGGGTKLEMKR
notes: Fab in periplasmic extract
For the molecule B8, the binding result was “no binding”.

B9: ING-1 Fab, light chain L97G (Fab, V domains shown)
VH: QIQLVQSGPELKKPGETVKISCKASGYTFTKYGMNWVKQAPGKGLKWMGWINTYTEEPTYGDDFKGRFAFSLETSASTANLQINNLKSEDTATYFCARFGSAVDYWGQGTSVTVSS
VL: DIVMTQAAFSNPVTLGTSGSISCRSSKSLLHSNGITYLYWYLQKPGQSPQLLIYQMSNLASGVPDRFSSSGSGTDFTLRISRVEAEDVGVYYCAQNGELPRTFGGGTKLEMKR
notes: Fab in periplasmic extract
On to B9, for which the binding result is on record as “no binding”.

B10: ING-1 Fab, light chain L99T (Fab, V domains shown)
VH: QIQLVQSGPELKKPGETVKISCKASGYTFTKYGMNWVKQAPGKGLKWMGWINTYTEEPTYGDDFKGRFAFSLETSASTANLQINNLKSEDTATYFCARFGSAVDYWGQGTSVTVSS
VL: DIVMTQAAFSNPVTLGTSGSISCRSSKSLLHSNGITYLYWYLQKPGQSPQLLIYQMSNLASGVPDRFSSSGSGTDFTLRISRVEAEDVGVYYCAQNLETPRTFGGGTKLEMKR
notes: Fab in periplasmic extract
Consider B10, for which the “fold difference in affinity” value came out at 0.09 fold.

B11: ING-1 Fab, light chain R101A (Fab, V domains shown)
VH: QIQLVQSGPELKKPGETVKISCKASGYTFTKYGMNWVKQAPGKGLKWMGWINTYTEEPTYGDDFKGRFAFSLETSASTANLQINNLKSEDTATYFCARFGSAVDYWGQGTSVTVSS
VL: DIVMTQAAFSNPVTLGTSGSISCRSSKSLLHSNGITYLYWYLQKPGQSPQLLIYQMSNLASGVPDRFSSSGSGTDFTLRISRVEAEDVGVYYCAQNLELPATFGGGTKLEMKR
notes: Fab in periplasmic extract
In the case of B11, the binding result is given as “no binding”.

B12: ING-1 Fab, light chain L99P (Fab, V domains shown)
VH: QIQLVQSGPELKKPGETVKISCKASGYTFTKYGMNWVKQAPGKGLKWMGWINTYTEEPTYGDDFKGRFAFSLETSASTANLQINNLKSEDTATYFCARFGSAVDYWGQGTSVTVSS
VL: DIVMTQAAFSNPVTLGTSGSISCRSSKSLLHSNGITYLYWYLQKPGQSPQLLIYQMSNLASGVPDRFSSSGSGTDFTLRISRVEAEDVGVYYCAQNLEPPRTFGGGTKLEMKR
notes: Fab in periplasmic extract
Take B12: the “fold difference in affinity” value was 0.01 fold.

B13: ING-1 Fab, light chain M56T (Fab, V domains shown)
VH: QIQLVQSGPELKKPGETVKISCKASGYTFTKYGMNWVKQAPGKGLKWMGWINTYTEEPTYGDDFKGRFAFSLETSASTANLQINNLKSEDTATYFCARFGSAVDYWGQGTSVTVSS
VL: DIVMTQAAFSNPVTLGTSGSISCRSSKSLLHSNGITYLYWYLQKPGQSPQLLIYQTSNLASGVPDRFSSSGSGTDFTLRISRVEAEDVGVYYCAQNLELPRTFGGGTKLEMKR
notes: Fab in periplasmic extract
Turning to B13, the “fold difference in affinity” value stood at 0.8 fold.

B14: ING-1 Fab, light chain L99G (Fab, V domains shown)
VH: QIQLVQSGPELKKPGETVKISCKASGYTFTKYGMNWVKQAPGKGLKWMGWINTYTEEPTYGDDFKGRFAFSLETSASTANLQINNLKSEDTATYFCARFGSAVDYWGQGTSVTVSS
VL: DIVMTQAAFSNPVTLGTSGSISCRSSKSLLHSNGITYLYWYLQKPGQSPQLLIYQMSNLASGVPDRFSSSGSGTDFTLRISRVEAEDVGVYYCAQNLEGPRTFGGGTKLEMKR
notes: Fab in periplasmic extract
Consider B14, for which the “fold difference in affinity” value amounted to 0.02 fold.

B15: ING-1 Fab, light chain N33T (Fab, V domains shown)
VH: QIQLVQSGPELKKPGETVKISCKASGYTFTKYGMNWVKQAPGKGLKWMGWINTYTEEPTYGDDFKGRFAFSLETSASTANLQINNLKSEDTATYFCARFGSAVDYWGQGTSVTVSS
VL: DIVMTQAAFSNPVTLGTSGSISCRSSKSLLHSTGITYLYWYLQKPGQSPQLLIYQMSNLASGVPDRFSSSGSGTDFTLRISRVEAEDVGVYYCAQNLELPRTFGGGTKLEMKR
notes: Fab in periplasmic extract
With B15, the “fold difference in affinity” value was 0.6 fold.

B16: ING-1 Fab, light chain R101P (Fab, V domains shown)
VH: QIQLVQSGPELKKPGETVKISCKASGYTFTKYGMNWVKQAPGKGLKWMGWINTYTEEPTYGDDFKGRFAFSLETSASTANLQINNLKSEDTATYFCARFGSAVDYWGQGTSVTVSS
VL: DIVMTQAAFSNPVTLGTSGSISCRSSKSLLHSNGITYLYWYLQKPGQSPQLLIYQMSNLASGVPDRFSSSGSGTDFTLRISRVEAEDVGVYYCAQNLELPPTFGGGTKLEMKR
notes: Fab in periplasmic extract
On to B16, for which the binding result is “no binding”.

B17: ING-1 Fab, light chain L97A (Fab, V domains shown)
VH: QIQLVQSGPELKKPGETVKISCKASGYTFTKYGMNWVKQAPGKGLKWMGWINTYTEEPTYGDDFKGRFAFSLETSASTANLQINNLKSEDTATYFCARFGSAVDYWGQGTSVTVSS
VL: DIVMTQAAFSNPVTLGTSGSISCRSSKSLLHSNGITYLYWYLQKPGQSPQLLIYQMSNLASGVPDRFSSSGSGTDFTLRISRVEAEDVGVYYCAQNAELPRTFGGGTKLEMKR
notes: Fab in periplasmic extract
For the molecule B17, the “fold difference in affinity” value was 0.5 fold.

B18: ING-1 Fab, light chain R101I (Fab, V domains shown)
VH: QIQLVQSGPELKKPGETVKISCKASGYTFTKYGMNWVKQAPGKGLKWMGWINTYTEEPTYGDDFKGRFAFSLETSASTANLQINNLKSEDTATYFCARFGSAVDYWGQGTSVTVSS
VL: DIVMTQAAFSNPVTLGTSGSISCRSSKSLLHSNGITYLYWYLQKPGQSPQLLIYQMSNLASGVPDRFSSSGSGTDFTLRISRVEAEDVGVYYCAQNLELPITFGGGTKLEMKR
notes: Fab in periplasmic extract
Regarding B18, the binding result is “no binding”.

B19: ING-1 Fab, light chain Q55G (Fab, V domains shown)
VH: QIQLVQSGPELKKPGETVKISCKASGYTFTKYGMNWVKQAPGKGLKWMGWINTYTEEPTYGDDFKGRFAFSLETSASTANLQINNLKSEDTATYFCARFGSAVDYWGQGTSVTVSS
VL: DIVMTQAAFSNPVTLGTSGSISCRSSKSLLHSNGITYLYWYLQKPGQSPQLLIYGMSNLASGVPDRFSSSGSGTDFTLRISRVEAEDVGVYYCAQNLELPRTFGGGTKLEMKR
notes: Fab in periplasmic extract
With B19, the “fold difference in affinity” value is 0.7 fold.

B20: ING-1 Fab, light chain P100L (Fab, V domains shown)
VH: QIQLVQSGPELKKPGETVKISCKASGYTFTKYGMNWVKQAPGKGLKWMGWINTYTEEPTYGDDFKGRFAFSLETSASTANLQINNLKSEDTATYFCARFGSAVDYWGQGTSVTVSS
VL: DIVMTQAAFSNPVTLGTSGSISCRSSKSLLHSNGITYLYWYLQKPGQSPQLLIYQMSNLASGVPDRFSSSGSGTDFTLRISRVEAEDVGVYYCAQNLELLRTFGGGTKLEMKR
notes: Fab in periplasmic extract
As for B20, the “fold difference in affinity” value was 0.03 fold.
